Laboratory results: paper PMC406421 (Nuclear Receptor, 2004)

Experiments:
[1] = molecular target: GAL4-DBD/DRIP205 receptor interaction domain fusion protein (human) (UniProt Q15648); test: two-hybrid
[2] = molecular target: GAL4-DBD/DRIP205 receptor interaction domain fusion protein (human, UniProt Q15648 527-774); test: two-hybrid
GAL4-DBD/DRIP205 receptor interaction domain fusion protein, sequence (Q15648 527-774): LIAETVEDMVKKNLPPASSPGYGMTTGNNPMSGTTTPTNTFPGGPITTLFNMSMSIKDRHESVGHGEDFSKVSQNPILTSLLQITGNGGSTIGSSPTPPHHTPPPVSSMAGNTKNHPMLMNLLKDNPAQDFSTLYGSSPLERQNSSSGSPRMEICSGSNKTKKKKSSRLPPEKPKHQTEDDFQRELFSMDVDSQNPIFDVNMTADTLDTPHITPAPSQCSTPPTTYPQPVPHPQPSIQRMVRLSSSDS

GAL4-DBD/DRIP205 receptor interaction domain fusion protein (human), sequence (Q15648 527-774): as above

VP16-AD/CAR-LBD fusion protein of CAR(SV2) (from UniProt Q14994-2 105-348) (domain or fragment)
fold induction of the interaction by CITCO over Me2SO (two-hybrid reporter) [1]: 100 fold

B1: VP16-AD/CAR-LBD fusion protein of reference CAR(SV1) (domain or fragment, human, UniProt Q14994-2 105-348, looked up)
chain: QLSKEQEELIRTLLGAHTRHMGTMFEQFVQFRPPAHLFIHHQPLPTLAPVLPLVTHFADINTFMVLQVIKFTKDLPVFRSLPIEDQISLLKGAAVEICHIVLNTTFCLQTQNFLCGPLRYTIEDGARVGFQVEFLELLFHFHGTLRKLQLQEPEYVLLAAMALFSPDRPGVTQRDEIDQLQEEMALTLQSYIKGQQRRPRDRFLYAKLLGLLAELRSINEAYGYQIQHIQGLSAMMPLLQEICS
fold induction of the interaction by CITCO over Me2SO (two-hybrid reporter) [2]: 2 fold
